Data reported in patent US20210380678A1 (SURROZEN OPERATING, published 2021).
Blank lines part the entries; values can stand above or below the binder they belong to.

Key:
[1] = target: T1, human ASGR2 extracellular domain (hASGR2 ECD) (human, UniProt P07307 86-311, biotinylated (His/Avi tag)); assay: BLI, Fab on hASGR2
T1 construct: Cloned with a His/Avi tag
T1 sequence: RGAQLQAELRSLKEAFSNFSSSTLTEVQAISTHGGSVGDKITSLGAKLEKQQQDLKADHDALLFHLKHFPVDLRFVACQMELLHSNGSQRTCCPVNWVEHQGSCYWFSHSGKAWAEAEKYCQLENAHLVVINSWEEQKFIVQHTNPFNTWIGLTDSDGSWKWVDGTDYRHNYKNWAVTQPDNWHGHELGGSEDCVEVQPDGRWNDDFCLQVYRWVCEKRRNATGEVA

[2] = target: T2, human ASGR1 extracellular domain (hASGR1 ECD) (human, UniProt P07306 62-291, biotinylated (His-Avi tag)); assay: BLI, Fab on hASGR1
T2 construct: His-Avi tag at the N-terminus, biotinylated for BLI; also called human ASGR1 ECD
T2 sequence: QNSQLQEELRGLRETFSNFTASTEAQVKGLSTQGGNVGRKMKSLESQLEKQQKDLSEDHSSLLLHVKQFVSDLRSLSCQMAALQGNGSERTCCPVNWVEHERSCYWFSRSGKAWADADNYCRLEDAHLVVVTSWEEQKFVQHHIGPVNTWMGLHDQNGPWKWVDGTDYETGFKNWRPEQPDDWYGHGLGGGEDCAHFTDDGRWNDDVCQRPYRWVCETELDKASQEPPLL

[3] = target: T2, human ASGR1 extracellular domain …; assay: BLI (Octet), Fab on biotinylated ASGR1 ECD, curve model fitting; Kd only in FIG. 9A
Description: (§1) Affinity measurement: Binding kinetics of the RSPO-derived proteins to LGRS, RNF43, or ZNRF3, and binding of the anti-ASGR Fabs to human and/or mouse ASGR1 were determined by bio-layer interferometry (BLI) using Octet Red 96 (PALL ForteBio, Fremont, CA) instruments at 30° C., 1000 rpm with either streptavidin (SA) or anti-hIgG Fc capture (AHC) biosensors. […] Following capture of ECDs of RNF43, ZNRF3 or LGRS, the biosensors were dipped into wells containing the relevant test molecules at 7 different concentrations in running buffer plus a well with only running buffer as a reference channel. KD was determined by steady-state analysis based on the average responses between 140 to 145 seconds of association phase, for binding to LGRS, RNF43, and ZNRF3. For the binding to ASGR, KD was determined by curve model fitting using the Octet® Red data analysis software (Fortebio)

[4] = target: T3, mouse ASGR1 extracellular domain (mASGR1 ECD) (mouse, biotinylated (His-Avi tag)); assay: as above
T3 construct: His-Avi tag at the C-terminus, biotinylated; also called murine ASGR1; mouse ASGR1 (Q61-N284)
T3 chain: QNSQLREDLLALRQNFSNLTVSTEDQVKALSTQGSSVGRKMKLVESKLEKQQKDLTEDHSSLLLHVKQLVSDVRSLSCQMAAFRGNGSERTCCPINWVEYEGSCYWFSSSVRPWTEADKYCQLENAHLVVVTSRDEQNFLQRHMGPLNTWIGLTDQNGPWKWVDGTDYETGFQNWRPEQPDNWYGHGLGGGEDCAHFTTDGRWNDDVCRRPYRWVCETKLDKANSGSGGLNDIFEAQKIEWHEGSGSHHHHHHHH
Description: as §1

B3: anti-ASGR1 Fab (Fab, V domains shown)
VH: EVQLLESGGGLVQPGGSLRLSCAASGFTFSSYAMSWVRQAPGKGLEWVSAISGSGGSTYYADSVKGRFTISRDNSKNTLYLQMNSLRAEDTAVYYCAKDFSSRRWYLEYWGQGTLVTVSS
VL: DIELTQDPAVSVALGQTVRITCQGDSLRSYYASWYQQKPGQAPVLVIYGKNNRPSGIPDRFSGSSSGNTASLTITGAQAEDEADYYCNSLERIGYLSYVFGGGTKLTVLG
notes: Made with a (His)6 tag at the C-terminus of the human IgG1 CH1 domain after a 5-mer linker (GSGSG); also called αASGR1 antibody (e.g., RO-01) expressed as a Fab
binding result [3]: binds
binding result [4]: binds

B4: LP1-8M24 Fab (Fab, V domains shown)
VH: QVQLQQSGAELARPGASVKLSCKASGYTFTNYGINWVKQRTGQGLEWIGEIFPRSDNTFYNEKFKGKATLTADKSSTTAYMELRSLTSEDSAVYFCARKGRDYGTSHYFDYWGQGTTLTVSS
VL: DIQMTQSPASLSVSVGETVTITCRISENIYSNLAWYQQKQGKSPHLLVYAAINLADGVPSRFSGSGSGTQFSLKINSLQSEDFGSYYCQHFWGTPFTFGSGTKLEIK
notes: Tested as Fab, from hybridoma development
binding result [2]: binds

B5: Abv-10B8 Fab (Fab, V domains shown)
VH: DVKLVESGEGLVKPGGSLKLSCAASGFTFSSYAMSWVRQTPEKRLEWVAYISSGGDYIYYVDTVKGRFTISRDNARNTLYLQMSSLKSEDTAVYYCTREGTGGMDYWGQGTSVTVSS
VL: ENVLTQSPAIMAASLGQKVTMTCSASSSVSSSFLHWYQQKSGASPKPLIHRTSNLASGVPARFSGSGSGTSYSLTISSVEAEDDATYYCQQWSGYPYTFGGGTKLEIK
notes: as for B4
binding result [1]: binds

Results, then the binder that gave them:

binding result [1]: binds
B1: Abv-3D11 Fab (Fab, V domains shown)
VH: EVQLVESGGGLVQPKGSLKLSCAASGFSFNTYAMNWVRQAPGKGLEWVARIRSKSNNYATYYADSVKDRFTISRDDSESMLYLQMNNLKTEDTAMYYCVRPRYDYWYFDVWGTGTTVTVSS
VL: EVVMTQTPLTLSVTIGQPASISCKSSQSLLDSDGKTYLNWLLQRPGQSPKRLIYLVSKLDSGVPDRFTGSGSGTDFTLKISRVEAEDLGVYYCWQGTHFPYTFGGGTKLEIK
notes: as for B4

binding result [2]: binds
B2: LP1-2I13 Fab (Fab, V domains shown)
VH: EVQLVESGGGLVKPGGSRKLSCAASGFTFSDYGMHWVRQAPEKGLEWVAYISSGSSTIYYADTVKGRFTISRDNAKNTLFLQMTSLRSEDTAMYYCSRKGGFGDYEKSYAMDYWGQGTSVTVSS
VL: DIQMTQSPASLSASVGETVTITCRASENIYSYLVWYQQKQGKSPQLLVYNAKTLAEGVPSRFSGSGSGTQFSLKINSLQPEDFGSYYCQHHYGTWTFGGGIKLEIK
notes: as for B4
